Measurements as given in US20210121563A1 (Novartis, published 2021).
Changes are numbered by the printed parent chain.

B1: Chi mAb (Tyr) (antibody, human IgG4 S228P, kappa, V domains shown)
VH: QVQLQQSGSELVRPGASVKLSCKASGYTFTTYWMHWVRQRPGQGLEWIGNIYPGTGGSNFDEKFKNRTSLTVDTSSTTAYMHLASLTSEDSAVYYCTRWTTGTGAYWGQGTTVTVSS
VL: DIVMTQSPSSLTVTAGEKVTMSCKSSQSLLDSGNQKNFLTWYQQKPGQPPKLLIFWASTRESGVPDRFTGSGSVTDFTLTISSVQAEDLAVYYCQNDYSYPYTFGQGTKVEIKR
notes: also called BAP049-chi-Y; Chi (Tyr)
B2: Mu mAb (antibody, V domains shown)
VH: B1 VH with T112L, S117A
VL: DIVMTQSPSSLTVTAGEKVTMSCKSSQSLLDSGNQKNFLTWYQQKPGQPPKLLIFWASTRESGVPDRFTGSGSVTDFTLTISSVQAEDLAVYYCQNDYSYPCTFGGGTKLEIK
notes: also called murine anti-PD-1 mAb BAP049; Mu mAb control
B3: BAP049-hum16 (antibody, human IgG4 S228P, kappa, V domains shown)
VH: EVQLVQSGAEVKKPGESLRISCKGSGYTFTTYWMHWVRQAPGQGLEWMGNIYPGTGGSNFDEKFKNRFTISRDNSKNTLYLQMNSLRAEDTAVYYCTRWTTGTGAYWGQGTTVTVSS
VL: EIVLTQSPDFQSVTPKEKVTITCKSSQSLLDSGNQKNFLTWYQQKPGQAPRLLIYWASTRESGVPSRFSGSGSGTDFTFTISSLEAEDAATYYCQNDYSYPYTFGQGTKVEIKR
notes: also called Clone No. 16
B4: BAP049-hum03 (antibody, human IgG4 S228P, kappa, V domains shown)
VH: B3 VH with V37I, A40S, G42S, Q43R, M48L
VL: DIQMTQSPSSLSASVGDRVTITCKSSQSLLDSGNQKNFLTWYQQKPGQAPRLLIYWASTRESGIPPRFSGSGYGTDFTLTINNIESEDAAYYFCQNDYSYPYTFGQGTKVEIKR
notes: also called Clone No. 3
B5: BAP049-hum02 (antibody, human IgG4 S228P, kappa, V domains shown)
VH: EVQLVQSGAEVKKPGESLRISCKGSGYTFTTYWMHWVRQATGQGLEWMGNIYPGTGGSNFDEKFKNRVTITADKSTSTAYMELSSLRSEDTAVYYCTRWTTGTGAYWGQGTTVTVSS
VL: B4 VL
notes: also called Clone No. 2
B6: BAP049-hum12 (antibody, human IgG4 S228P, kappa, V domains shown)
VH: B5 VH
VL: DIQMTQSPSSLSASVGDRVTITCKSSQSLLDSGNQKNFLTWYLQKPGQSPQLLIYWASTRESGVPSRFSGSGSGTDFTFTISSLEAEDAATYYCQNDYSYPYTFGQGTKVEIKR
notes: also called Clone No. 12
B7: BAP049-hum13 (antibody, human IgG4 S228P, kappa)
heavy: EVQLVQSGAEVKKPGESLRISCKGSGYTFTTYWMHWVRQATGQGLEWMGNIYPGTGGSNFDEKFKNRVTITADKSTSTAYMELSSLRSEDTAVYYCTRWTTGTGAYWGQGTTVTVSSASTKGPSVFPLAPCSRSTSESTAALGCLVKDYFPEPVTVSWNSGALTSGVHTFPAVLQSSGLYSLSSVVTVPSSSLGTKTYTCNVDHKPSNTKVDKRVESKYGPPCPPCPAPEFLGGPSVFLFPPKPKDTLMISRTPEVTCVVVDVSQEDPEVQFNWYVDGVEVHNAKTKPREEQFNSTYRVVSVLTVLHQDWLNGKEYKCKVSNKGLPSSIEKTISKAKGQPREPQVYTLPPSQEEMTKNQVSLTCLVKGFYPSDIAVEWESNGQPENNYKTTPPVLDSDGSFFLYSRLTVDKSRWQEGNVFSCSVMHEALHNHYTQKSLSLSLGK
light: DVVMTQSPLSLPVTLGQPASISCKSSQSLLDSGNQKNFLTWYQQKPGKAPKLLIYWASTRESGVPSRFSGSGSGTDFTFTISSLEAEDAATYYCQNDYSYPYTFGQGTKVEIKRTVAAPSVFIFPPSDEQLKSGTASVVCLLNNFYPREAKVQWKVDNALQSGNSQESVTEQDSKDSTYSLSSTLTLSKADYEKHKVYACEVTHQGLSSPVTKSFNRGEC
notes: also called Clone No. 13
B8: BAP049-hum10 (antibody, human IgG4 S228P, kappa)
heavy: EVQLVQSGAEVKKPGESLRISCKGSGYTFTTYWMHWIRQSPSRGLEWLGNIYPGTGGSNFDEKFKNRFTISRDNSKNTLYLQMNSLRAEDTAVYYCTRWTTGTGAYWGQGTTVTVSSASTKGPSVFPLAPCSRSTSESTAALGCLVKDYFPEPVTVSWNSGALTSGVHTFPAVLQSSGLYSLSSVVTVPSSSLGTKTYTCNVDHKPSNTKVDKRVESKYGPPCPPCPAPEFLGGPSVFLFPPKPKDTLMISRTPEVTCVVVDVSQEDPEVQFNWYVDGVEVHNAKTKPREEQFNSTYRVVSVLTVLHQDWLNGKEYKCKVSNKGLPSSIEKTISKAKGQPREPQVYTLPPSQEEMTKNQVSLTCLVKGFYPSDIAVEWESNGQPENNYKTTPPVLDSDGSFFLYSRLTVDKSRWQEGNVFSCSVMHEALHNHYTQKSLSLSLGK
light: EIVLTQSPATLSLSPGERATLSCKSSQSLLDSGNQKNFLTWYQQKPGQAPRLLIYWASTRESGVPSRFSGSGSGTDFTFTISSLEAEDAATYYCQNDYSYPYTFGQGTKVEIKRTVAAPSVFIFPPSDEQLKSGTASVVCLLNNFYPREAKVQWKVDNALQSGNSQESVTEQDSKDSTYSLSSTLTLSKADYEKHKVYACEVTHQGLSSPVTKSFNRGEC
notes: also called humanized BAP049 clone hum10
B9: BAP049-hum11 (antibody, human IgG4 S228P, kappa)
heavy: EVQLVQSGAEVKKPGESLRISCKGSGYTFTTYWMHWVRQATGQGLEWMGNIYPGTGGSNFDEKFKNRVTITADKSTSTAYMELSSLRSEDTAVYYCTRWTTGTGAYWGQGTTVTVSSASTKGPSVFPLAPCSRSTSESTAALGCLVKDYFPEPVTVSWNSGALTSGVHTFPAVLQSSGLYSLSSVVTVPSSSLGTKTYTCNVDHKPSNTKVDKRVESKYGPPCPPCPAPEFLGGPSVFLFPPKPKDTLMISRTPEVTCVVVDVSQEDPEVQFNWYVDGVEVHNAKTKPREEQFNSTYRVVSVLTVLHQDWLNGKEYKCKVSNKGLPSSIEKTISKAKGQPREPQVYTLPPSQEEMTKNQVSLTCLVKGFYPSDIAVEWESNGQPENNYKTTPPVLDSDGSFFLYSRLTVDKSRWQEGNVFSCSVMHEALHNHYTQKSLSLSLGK
light: B8 light
notes: also called humanized BAP049 clone hum11
B10: BAP049-hum15 (antibody, human IgG4 S228P, kappa)
heavy: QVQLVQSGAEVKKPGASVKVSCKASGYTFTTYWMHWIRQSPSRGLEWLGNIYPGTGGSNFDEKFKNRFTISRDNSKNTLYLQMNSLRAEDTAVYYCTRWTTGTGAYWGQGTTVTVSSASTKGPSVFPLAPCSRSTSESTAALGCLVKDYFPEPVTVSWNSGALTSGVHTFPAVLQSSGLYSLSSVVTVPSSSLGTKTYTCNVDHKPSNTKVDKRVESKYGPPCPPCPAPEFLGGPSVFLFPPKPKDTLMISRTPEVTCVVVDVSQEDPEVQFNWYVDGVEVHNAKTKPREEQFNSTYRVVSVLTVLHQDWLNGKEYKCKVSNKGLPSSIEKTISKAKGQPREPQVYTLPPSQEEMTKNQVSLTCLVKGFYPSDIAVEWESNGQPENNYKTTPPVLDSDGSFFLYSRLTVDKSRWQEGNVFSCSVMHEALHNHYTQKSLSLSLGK
light: B8 light with A9D, T10F, L11Q, L13V, S14T, G16K, R18K, A19V, L21I, S22T
notes: also called Clone No. 15
B11: BAP049-hum04 (antibody, human IgG4 S228P, kappa, V domains shown)
VH: B3 VH with V37I, A40S, G42S, Q43R, M48L
VL: EIVLTQSPATLSLSPGERATLSCKSSQSLLDSGNQKNFLTWYQQKPGKAPKLLIYWASTRESGVPSRFSGSGSGTDFTFTISSLQPEDIATYYCQNDYSYPYTFGQGTKVEIKR
notes: also called Clone No. 4
B12: BAP049-hum06 (antibody, human IgG4 S228P, kappa)
heavy: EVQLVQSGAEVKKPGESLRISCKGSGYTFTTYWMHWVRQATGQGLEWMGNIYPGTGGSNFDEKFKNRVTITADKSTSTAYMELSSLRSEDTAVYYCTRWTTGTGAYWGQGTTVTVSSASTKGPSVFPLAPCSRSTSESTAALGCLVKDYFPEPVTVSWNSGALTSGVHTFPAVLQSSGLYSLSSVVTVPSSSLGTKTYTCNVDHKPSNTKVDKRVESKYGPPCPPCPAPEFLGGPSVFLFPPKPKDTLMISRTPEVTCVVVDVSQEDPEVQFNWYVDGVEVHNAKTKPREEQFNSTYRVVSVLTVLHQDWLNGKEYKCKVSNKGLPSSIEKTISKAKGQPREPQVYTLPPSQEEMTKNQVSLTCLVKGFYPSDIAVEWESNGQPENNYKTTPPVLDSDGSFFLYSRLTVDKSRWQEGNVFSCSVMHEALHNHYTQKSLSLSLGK
light: B7 light with V2I, S7T, L15P, Q17E, K48Q, K51R
notes: also called Clone No. 6
B13: BAP049-hum08 (antibody, human IgG4 S228P, kappa)
heavy: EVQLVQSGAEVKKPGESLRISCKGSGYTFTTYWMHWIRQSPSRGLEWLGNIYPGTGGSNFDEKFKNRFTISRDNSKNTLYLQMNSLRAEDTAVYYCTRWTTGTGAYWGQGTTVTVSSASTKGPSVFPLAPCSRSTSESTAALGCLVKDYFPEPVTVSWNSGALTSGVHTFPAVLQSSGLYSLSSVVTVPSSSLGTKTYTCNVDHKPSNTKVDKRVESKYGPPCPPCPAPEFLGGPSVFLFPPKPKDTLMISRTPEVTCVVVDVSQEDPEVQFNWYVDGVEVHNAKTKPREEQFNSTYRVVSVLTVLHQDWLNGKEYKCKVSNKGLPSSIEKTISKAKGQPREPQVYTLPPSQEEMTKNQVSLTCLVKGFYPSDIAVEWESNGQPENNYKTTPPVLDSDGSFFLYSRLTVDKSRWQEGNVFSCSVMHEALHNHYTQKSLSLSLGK
light: B8 light with A9D, T10F, L11Q, L13V, S14T, G16K, R18K, A19V, L21I, S22T
notes: also called humanized BAP049 clone hum08
B14: BAP049-hum05 (antibody, human IgG4 S228P, kappa, V domains shown)
VH: B5 VH
VL: B11 VL
notes: also called humanized BAP049 clone hum05
B15: BAP049-hum14 (antibody, human IgG4 S228P, kappa)
heavy: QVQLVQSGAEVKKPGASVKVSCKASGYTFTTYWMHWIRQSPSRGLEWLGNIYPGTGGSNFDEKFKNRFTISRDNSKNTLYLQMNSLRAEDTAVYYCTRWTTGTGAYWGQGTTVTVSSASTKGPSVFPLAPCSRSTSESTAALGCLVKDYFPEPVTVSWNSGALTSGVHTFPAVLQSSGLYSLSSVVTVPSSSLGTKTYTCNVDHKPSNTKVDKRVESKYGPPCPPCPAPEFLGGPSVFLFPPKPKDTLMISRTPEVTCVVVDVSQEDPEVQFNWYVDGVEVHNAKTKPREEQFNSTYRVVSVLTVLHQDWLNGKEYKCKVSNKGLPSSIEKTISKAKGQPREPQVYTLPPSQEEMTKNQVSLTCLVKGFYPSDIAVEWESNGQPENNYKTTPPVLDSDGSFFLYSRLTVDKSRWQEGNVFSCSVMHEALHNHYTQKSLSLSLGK
light: B8 light
notes: also called Clone No. 14
B16: BAP049-hum07 (antibody, human IgG4 S228P, kappa)
heavy: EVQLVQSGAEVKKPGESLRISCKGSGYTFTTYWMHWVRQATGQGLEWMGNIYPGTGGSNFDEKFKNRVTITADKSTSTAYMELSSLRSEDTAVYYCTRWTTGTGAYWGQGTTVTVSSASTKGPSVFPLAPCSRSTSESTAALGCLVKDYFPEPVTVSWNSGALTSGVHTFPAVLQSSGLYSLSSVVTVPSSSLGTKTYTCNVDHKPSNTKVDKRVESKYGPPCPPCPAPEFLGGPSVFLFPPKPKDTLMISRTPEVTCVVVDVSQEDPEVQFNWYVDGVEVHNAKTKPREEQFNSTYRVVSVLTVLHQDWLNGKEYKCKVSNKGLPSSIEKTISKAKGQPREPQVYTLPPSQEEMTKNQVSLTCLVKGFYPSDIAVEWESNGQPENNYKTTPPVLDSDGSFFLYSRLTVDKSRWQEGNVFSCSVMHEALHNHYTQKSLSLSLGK
light: B8 light with Q48K, R51K
notes: also called Clone No. 7
B17: BAP049-hum01 (antibody, human IgG4 S228P, kappa, V domains shown)
VH: B5 VH
VL: B11 VL with K48Q, K51R, D76E, F79L, E87D, I89F
notes: also called humanized BAP049 clone hum01
B18: BAP049-hum09 (antibody, human IgG4 S228P, kappa)
heavy: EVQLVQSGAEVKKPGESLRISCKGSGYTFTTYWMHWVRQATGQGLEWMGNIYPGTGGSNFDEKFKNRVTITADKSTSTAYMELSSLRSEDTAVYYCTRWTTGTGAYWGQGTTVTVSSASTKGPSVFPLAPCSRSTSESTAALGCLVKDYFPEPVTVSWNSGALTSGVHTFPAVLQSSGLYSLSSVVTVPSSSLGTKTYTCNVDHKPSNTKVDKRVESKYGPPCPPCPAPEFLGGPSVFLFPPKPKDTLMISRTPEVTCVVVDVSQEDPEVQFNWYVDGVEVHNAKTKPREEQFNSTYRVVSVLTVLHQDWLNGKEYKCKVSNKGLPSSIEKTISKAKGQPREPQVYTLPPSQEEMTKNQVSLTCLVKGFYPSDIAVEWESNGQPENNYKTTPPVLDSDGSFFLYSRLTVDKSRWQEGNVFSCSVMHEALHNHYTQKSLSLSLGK
light: B8 light with A9D, T10F, L11Q, L13V, S14T, G16K, R18K, A19V, L21I, S22T
notes: also called humanized BAP049 clone hum09

Assays:
[1] = biological target: T1, Programmed Death 1 (PD-1) (UniProt Q15116 25-288, limits assumed); experiment: FACS blocking of ligand-Ig binding to PD-1, MFI of bound ligand; ligand by the legend paragraph 125 'PD-L1-Ig and PD-L2-Ig' (no ligand named on the sheet; FIG. 8B is PD-L2-Ig, so most likely PD-L1-Ig); cells not named
T1 sequence (Q15116 25-288 limits assumed): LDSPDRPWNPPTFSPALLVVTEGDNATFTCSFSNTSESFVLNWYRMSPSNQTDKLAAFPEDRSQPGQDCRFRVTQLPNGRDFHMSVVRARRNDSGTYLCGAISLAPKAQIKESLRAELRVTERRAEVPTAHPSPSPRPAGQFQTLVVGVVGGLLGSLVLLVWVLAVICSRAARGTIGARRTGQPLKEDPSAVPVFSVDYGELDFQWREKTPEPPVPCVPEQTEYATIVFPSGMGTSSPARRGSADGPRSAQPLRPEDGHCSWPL

[2] = biological target: T1, Programmed Death 1 (PD-1); experiment: rank of the clone among the 16 humanized clones by FACS binding data; higher number = worse
[3] = biological target: T1, Programmed Death 1 (PD-1); experiment: rank of the clone in the competition binding assay with labeled murine mAb BAP049, 1st experiment; higher number = worse
[4] = biological target: T1, Programmed Death 1 (PD-1); experiment: rank of the clone in the competition binding assay with labeled murine mAb BAP049, 2nd experiment; higher number = worse

Row | Binder | IC50 (read off the curve) [1] | Ranking, FACS data [2] | Competition Binding, 1st exp. (rank) [3] | Competition Binding, 2nd exp. (rank) [4]
1 | B1 | ~0.8 µg/mL |  |  | 
2 | B2 | ~0.6 µg/mL |  |  | 
3 | B3 |  | 15 | 16 | 15
4 | B4 |  | 7 | 8 | 14
5 | B5 |  | 6 | 3 | 2
6 | B6 |  | 3 | 8 | 16
7 | B7 |  | 6 | 1 | 1
8 | B8 |  | 7 | 6 | > 4
9 | B9 |  | 6 | 4 | > 4
10 | B10 |  | 6 | 7 | 15
11 | B11 |  | 14 | 15 | 15
12 | B12 |  | 1 | 7 | 3
13 | B13 |  | 7 | 7 | 4
14 | B14 |  | 5 | 5 | > 4
15 | B15 |  | 16 | 7 | 15
16 | B16 |  | 4 | 7 | > 4
17 | B17 |  | 2 | 7 | 2
18 | B18 | ~0.7 µg/mL | 7 | 2 | 4
